Data taken from US20210386788A1, “ER TUNABLE PROTEIN REGULATION” (Obsidian Therapeutics, Inc., priority 2018, published 2021).

B1: OT-001791: CD8α leader; Linker (RS); ER (T371A, L384M, M421G, N519S, G521R, Y537S); Furin cleavage site; CD19 CAR; SEQ ID NO. 404 (protein)
chain: MALPVTALLLPLALLLHAARPRSSLALSLTADQMVSALLDAEPPILYSEYDPTRPFSEASMMGLLTNLADRELVHMINWAKRVPGFVDLALHDQVHLLECAWMEILMIGLVWRSMEHPGKLLFAPNLLLDRNQGKCVEGGVEIFDMLLATSSRFRMMNLQGEEFVCLKSIILLNSGVYTFLSSTLKSLEEKDHIHRVLDKITDTLIHLMAKAGLTLQQQHQRLAQLLLILSHIRHMSSKRMEHLYSMKCKNVVPLSDLLLEMLDAHRLGTGAEDPRPSRKRRSLGDVGEIVMTQSPATLSLSPGERATLSCRASQDISKYLNWYQQKPGQAPRLLIYHTSRLHSGIPARFSGSGSGTDYTLTISSLQPEDFAVYFCQQGNTLPYTFGQGTKLEIKGGGGSGGGGSGGGGSQVQLQESGPGLVKPSETLSLTCTVSGVSLPDYGVSWIRQPPGKGLEWIGVIWGSETTYYSSSLKSRVTISKDNSKNQVSLKLSSVTAADTAVYYCAKHYYYGGSYAMDYWGQGTLVTVSSTTTPAPRPPTPAPTIASQPLSLRPEACRPAAGGAVHTRGLDFACDIYIWAPLAGTCGVLLLSLVITLYCKRGRKKLLYIFKQPFMRPVQTTQEEDGCSCRFPEEEEGGCELRVKFSRSADAPAYKQGQNQLYNELNLGRREEYDVLDKRRGRDPEMGGKPRRKNPQEGLYNELQKDKMAEAYSEIGMKGERRRGKGHDGLYQGLSTATKDTYDALHMQALPPR
B2: OT-001737: ER-DD fused to flexi IL12, with or without intervening furin site (protein)
chain: MCHQQLVISWFSLVFLASPLVAGSSLALSLTADQMVSALLDAEPPILYSEYDPTRPFSEASMMGLLTNLADRELVHMINWAKRVPGFVDLALHDQVHLLECAWMEILMIGLVWRSMEHPGKLLFAPNLLLDRNQGKCVEGGVEIFDMLLATSSRFRMMNLQGEEFVCLKSIILLNSGVYTFLSSTLKSLEEKDHIHRVLDKITDTLIHLMAKAGLTLQQQHQRLAQLLLILSHIRHMSSKRMEHLYSMKCKNVVPLSDLLLEMLDAHRLRTKRIWELKKDVYVVELDWYPDAPGEMVVLTCDTPEEDGITWTLDQSSEVLGSGKTLTIQVKEFGDAGQYTCHKGGEVLSHSLLLLHKKEDGIWSTDILKDQKEPKNKTFLRCEAKNYSGRFTCWWLTTISTDLTFSVKSSRGSSDPQGVTCGAATLSAERVRGDNKEYEYSVECQEDSACPAAEESLPIEVMVDAVHKLKYENYTSSFFIRDIIKPDPPKNLQLKPLKNSRQVEVSWEYPDTWSTPHSYFSLTFCVQVQGKSKREKKDRVFTDKTSATVICRKNASISVRAQDRYYSSSWSEWASVPCSGGGGSGGGGSGGGGSRNLPVATPDPGMFPCLHHSQNLLRAVSNMLQKARQTLEFYPCTSEEIDHEDITKDKTSTVEACLPLELTKNESCLNSRETSFITNGSCLASRKTSFMMALCLSSIYEDLKMYQVEFKTMNAKLLMDPKRQIFLDQNMLAVIDELMQALNFNSETVPQKSSLEEPDFYKTKIKLCILLHAFRIRAVTIDRVMSYLNAS
B3: OT-001356: IL12-CD19 CAR tandem construct listed without ER DD mutation in Table 13 (control) (protein)
chain: IWELKKDVYVVELDWYPDAPGEMVVLTCDTPEEDGITWTLDQSSEVLGSGKTLTIQVKEFGDAGQYTCHKGGEVLSHSLLLLHKKEDGIWSTDILKDQKEPKNKTFLRCEAKNYSGRFTCWWLTTISTDLTFSVKSSRGSSDPQGVTCGAATLSAERVRGDNKEYEYSVECQEDSACPAAEESLPIEVMVDAVHKLKYENYTSSFFIRDIIKPDPPKNLQLKPLKNSRQVEVSWEYPDTWSTPHSYFSLTFCVQVQGKSKREKKDRVFTDKTSATVICRKNASISVRAQDRYYSSSWSEWASVPCSGGGGSGGGGSGGGGSRNLPVATPDPGMFPCLHHSQNLLRAVSNMLQKARQTLEFYPCTSEEIDHEDITKDKTSTVEACLPLELTKNESCLNSRETSFITNGSCLASRKTSFMMALCLSSIYEDLKMYQVEFKTMNAKLLMDPKRQIFLDQNMLAVIDELMQALNFNSETVPQKSSLEEPDFYKTKIKLCILLHAFRIRAVTIDRVMSYLNASGS
B4: OT-001569: ER-DD (T371A, L384M, M421G, N519S, G521R, Y537S) fused to flexi IL12 (protein)
chain: MCHQQLVISWFSLVFLASPLVAGSSLALSLTADQMVSALLDAEPPILYSEYDPTRPFSEASMMGLLTNLADRELVHMINWAKRVPGFVDLALHDQVHLLECAWMEILMIGLVWRSMEHPGKLLFAPNLLLDRNQGKCVEGGVEIFDMLLATSSRFRMMNLQGEEFVCLKSIILLNSGVYTFLSSTLKSLEEKDHIHRVLDKITDTLIHLMAKAGLTLQQQHQRLAQLLLILSHIRHMSSKRMEHLYSMKCKNVVPLSDLLLEMLDAHRLGSIWELKKDVYVVELDWYPDAPGEMVVLTCDTPEEDGITWTLDQSSEVLGSGKTLTIQVKEFGDAGQYTCHKGGEVLSHSLLLLHKKEDGIWSTDILKDQKEPKNKTFLRCEAKNYSGRFTCWWLTTISTDLTFSVKSSRGSSDPQGVTCGAATLSAERVRGDNKEYEYSVECQEDSACPAAEESLPIEVMVDAVHKLKYENYTSSFFIRDIIKPDPPKNLQLKPLKNSRQVEVSWEYPDTWSTPHSYFSLTFCVQVQGKSKREKKDRVFTDKTSATVICRKNASISVRAQDRYYSSSWSEWASVPCSGGGGSGGGGSGGGGSRNLPVATPDPGMFPCLHHSQNLLRAVSNMLQKARQTLEFYPCTSEEIDHEDITKDKTSTVEACLPLELTKNESCLNSRETSFITNGSCLASRKTSFMMALCLSSIYEDLKMYQVEFKTMNAKLLMDPKRQIFLDQNMLAVIDELMQALNFNSETVPQKSSLEEPDFYKTKIKLCILLHAFRIRAVTIDRVMSYLNAS

Columns and labels:
Type in all cases: cell-based, human
primary T cells = test: CD19 CAR expression on lentivirus transduced primary T cells (flow cytometry with CD19-Fc); conditions: both day 7 and day 9
Method: Primary T cells were activated with CD3/CD28 Dynabeads at 3:1 Bead: Cell ratio overnight, then transduced with OT-001792 lentivirus. On day 7 of the T cell expansion, CAR expression was measured by flow cytometry with CD19-Fc on cells treated overnight in the presence (34% positive) or absence (0.6% positive) of 1 μM Bazedoxifene. After the T cells had expanded for 10 days, they were mixed with CD19-expressing Nalm6 target cells at ratios of 10:1 and 2.5:1 total T cells:Nalm6 cells and cultured for 3 days.
Primary T cells were activated with CD3/CD28 Dynabeads at 3:1 Bead:Cell ratio overnight, then transduced with lentiviruses derived from the indicated constructs. On day 7 or day 9 (as indicated) of the T cell expansion, CAR expression was measured by flow cytometry with CD19-Fc on cells incubated for 24 hours with 1 μM Bazedoxifene or 1 μM Raloxifene or DMSO. […] At day 9 the basal percentage of CAR positive cells for the same constructs was even lower at approximately 20% i.e. in the absence of ligand and about 32-45% in the presence of either ligand. […] This was true at both day 7 and day 9.
Human donor T cells were thawed and activated overnight in the presence of CD3/CD28 Dynabeads at 3:1 bead:cell ratio, then transduced with lentivirus related to OT-002158, or OT-001786. Cells were expanded over the course of 10 days, with fresh media added to maintain cells at around 0.5×10^6 cells/mL. On day 9, an aliquot of cells was removed, and treated with 1 μM Bazedoxifene overnight or DMSO vehicle control, then stained with 10 μg/mL CD19-Fc. Histograms showing CAR expression from a Live Singlet cell gate were plotted.
Human donor T cells were thawed and activated overnight in the presence of CD3/CD28 Dynabeads at 3:1 bead:cell ratio, then transduced with lentivirus from the constructs. Cells were expanded over the course of 10 days, and fresh media was added to maintain cells around 0.5×10^6 cells/ml. On day 9, an aliquot of cells were removed, treated with 1 μM Bazedoxifene overnight, then stained with 10 μg/mL CD19-Fc. Histograms showing CAR expression from a Live Singlet cell gate were plotted. The data are shown in Table 19 and Table 20 where data are presented as % CAR positive cells, where SR indicates stabilization ration.
T cells were transduced with OT-00179, OT-002158, OT-001407 or empty vector and expanded as described herein, frozen on day 10. To confirm the expression and function of this large scale expansion for in vivo use, cells were thawed and incubated overnight in the presence of CD3/28 beads (1:1 bead:cell ratio) and with or without 1 μM Bazedoxifene. FACS staining with 1 μg/mL CD19-Fc was performed to measure the surface expression of CD19-CAR. The data are provided in Table 21 as the percentage CAR positive cells.

HEK 293T cells = test: IL12 expression of ER-DD flexi IL12 constructs in transiently transfected HEK 293T cells (MSD assay); conditions: for IL12 expression, 1 μM BZD / IL12 expression, Vehicle: HEK 293T transiently transfected, MSD assay; for IL12 expression, 1 μM BZD: 1 μM Bazedoxifene 24 hours; for IL12 expression, Vehicle: vehicle control 24 hours; for Stabilization Ratio: IL12 with 1 μM BZD versus vehicle
Method: HEK 293T cells were transiently transfected with constructs containing ER-DDs fused to flexi IL12 with or without intervening furin site to generate constructs: OT-001569, OT-001737. Cells were then treated with 1 μM Bazedoxifene (BZD) or vehicle control for 24 hours and IL12 levels were measured by MSD assay Table 11.

HEK293T cells [1] = test: IL12 p40 in media of HEK293T cells transfected with IL12-CD19 CAR tandem constructs (MSD assay); conditions: for IL12p40 DMSO Average: vehicle 24 hrs (absence of ligand)
Method: (§1) HEK293T cells were transiently transfected with 1 μg DNA from each construct listed in the first column of Table 13 and incubated in DMEM with 10% FBS at 37° C., 5% CO2 for 24 hrs. Following the incubation, 1 μM of Bazedoxifene (BZD) or vehicle was added and cells were further incubated for 24 hrs. Following the incubation, CD19 CAR expression on the cell surface was quantified using FACS with CD19-Fc reagent, as a measure of transfection efficiency. IL12 levels in the media were quantified using MSD assay for p40. The IL12 and CD19 levels are shown in Table 13, where SD indicates standard deviation and SR indicates stabilization ratio. The stabilization ratio was calculated using the average IL12 values.

HEK293T cells [2] = test: CD19 CAR cell surface expression in transfected HEK293T cells (FACS with CD19-Fc); conditions: measure of transfection efficiency
Method: as §1

Molecule	percentage of CAR positive cells (primary T cells; absence of ligand)	percentage of CAR positive cells (primary T cells; presence of ligand)	IL12 expression, 1 μM BZD (HEK 293T cells)	IL12 expression, Vehicle (HEK 293T cells)	Stabilization Ratio (HEK 293T cells)	IL12p40 DMSO Average (HEK293T cells [1]; HEK293T, 1 μg DNA) [pg/mL]	Surface CAR (HEK293T cells [2]) [%]	IL12p40 1 μM BZD Average (HEK293T cells [1]; HEK293T, 1 μg DNA, 1 μM Bazedoxifene 24 hrs) [pg/mL]	SR (stabilization ratio) (HEK293T cells [1]; calculated using the average IL12 values, 1 μM BZD versus DMSO)
B1	undetectable	about 5%							
B2			79706.8	10186.4	7.8				
B3						203531.67	40		
B4			109878	11529.1	9.5	6443.64	0.1	75542.57	11.72
